Data published in the nanobody polyreactivity screen of Harvey et al. (2022).

Test: yeast display, Sf9 membrane polyspecificity reagent, FACS + sequencing; frameworks hold sequencing errors
Summary of the method: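 Polyreactivity labels are assigned by the sorting gate from which each nanobody was recovered. The gates were low and high (top ~1%), set on anti-HA fluorescence for expression and streptavidin fluorescence for reagent binding. Before sorting, galactose-induced (36–48 hours) yeast display cells were stained for 1 hour at 4 °C with 10% biotinylated, detergent-solubilized Sf9 membrane reagent.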

## QVHLVESGGGLVQAGGSLRLSCAASGRIYRVNGMGWYRQAPGTERELVAAIRRSGGSTYYADSVKGRFTISRDIAKNTVYLQMNSLKPEDTAVYYCAARVRQSSYTRYDSWGQGTQVTVSS
  polyreactivity (PSR sort gate): high polyreactivity

## QVHLVESGGGLVQAGGSLRLSCAASGRPFYIYAMGWYRPAPGKERELVAAITWSGGTTYYADSVKGRFTISRDTANNTVYLQMNSQKPQDTAVYYCNASFRRGFDYWGQGTQVTVSS
  polyreactivity (PSR sort gate): low polyreactivity

## QVHLVESGGGLVQAGGSLRLSCAASGRTFFRYAMGWYTQAPGKERELVAAITRSGGSTYYADSVKGRFTISRDNAKNTVYLEMNSLKPEDTAVYYCAAPREAYSRGYDSWGQGTQVTVSS
  polyreactivity (PSR sort gate): high polyreactivity

## QVHLVESGGGLVQAGGSLRLSCAASGRTFNRTAMGSYRQAPGKERELVAAMSWRGDSTSYADSVKGRFTISRDNAKNTVYLQMNSLKPADTAVYYCATAHDYAFYRYWYVPSEYYYWGQGTQVTVSW
  polyreactivity (PSR sort gate): low polyreactivity

## QVHLVESGGGLVQAGGSLRLSCAASGRTFPGYAMGWYRQAPGKERELVATITGNAGSTYYADSVKGRFTISRDNAKNTVYLQMNSLKPEDTAVYYCAAGRRRPYVRAYRGTDYWGQGTQVTVSS
  polyreactivity (PSR sort gate): low polyreactivity

## QVHLVESGGGLVQAGGSLRLSCAASGRTFSWNALGWYRQAPGKQRELVAVISRGDSTNYADSVKGRFTISRDNEKNTVYLQMNSLKPVDNAVYYCAADGYPPGYGYWGQGTQVTVSS
  polyreactivity (PSR sort gate): low polyreactivity

## QVHLVESGGGLVQAGGSLRLSCAASGRTFVFNAMGWYRQAPGKEREFVAAITWGGGSTYYADSVKGRFTISRDNAKNTVYLQMNSLKPEDTADYYCARPTTYGYYYWGQGTQVTVSS
  polyreactivity (PSR sort gate): high polyreactivity

## QVHLVESGGGLVQAGGSLRLSCAASGRTIGVNAMGWYRQPHGTERELVAAITKDSGATNYADSVKGLFTISRDNAKITVYFQMNSLKADDTAVYYCAARVWVRGYYWGQGTQVTVSS
  polyreactivity (PSR sort gate): low polyreactivity

## QVHLVESGGGLVQAGGSLRLSCAASGRTLAPNAMGWYRQAPGKERELVATITRGGTTNYADSVKGRFTISRDNAKNTVYLQMNSLKPEDTAVYYCAAGYPSWYYGYPYDSWGQGTQVTVSS
  polyreactivity (PSR sort gate): low polyreactivity

## QVHLVESGGGLVQAGGSLRLSCAASGRTVEGNAMGWYIQAPGKERELVAAITSGGRTNYADSVKGRFTISRDNAKNTVYLQMNSLKPVDTAVYYCAVETRDRSTDFPGQAYDYWGQGTQLTVSS
  polyreactivity (PSR sort gate): low polyreactivity

## QVHLVESGGGLVQAGGSLRLSCAASGSIFFGNAMGWYRQAPGKERQLVAAISTTGGSTYYADSVKGRFTISRDNAKNTVYLQMNSLKPEDTAVFFCNSDRATWWEQWWYDYWGQGTQVTVSS
  polyreactivity (PSR sort gate): low polyreactivity

## QVHLVESGGGLVQAGGSLRLSCAASGSIFGPYMGWYRQAPGKERELVASVVSTYYADSVKGRFTISRDNAKNTVYLQMNSLKPEYTAVYYCNTQDTKNKSSVFVPSDYWGQGTQVTVSS
  polyreactivity (PSR sort gate): low polyreactivity

## QVHLVESGGGLVQAGGSLRLSCAASGSIFNVNAMGWYRQAPGKERELVAAISSGGDTYYADSVKGRFTISRDNAKNTVYLQMNCLKPEDTAVYYCAKQSYTLYTLLYDYWGQGTQVTVSS
  polyreactivity (PSR sort gate): low polyreactivity

## QVHLVESGGGLVQAGGSLRLSCAASGSIFSWNAMGWYRQAPGKERELVAAISKRGTSTYYADSVKGRFTISRDNAKNTVYLQMNSLKPEDTAVYYCAARAQSYPYLSFDYWGQGTQVTVSS
  polyreactivity (PSR sort gate): high polyreactivity

## QVHLVESGGGLVQAGGSLRLSCAASGSIFVYNSMGWYRQAPGKEMELVAGITFIGGSTYYADSVKGRFTISRDNAKNTVYLQKNSLKPEDTAVYYCNADVAPGIFYGYDSWGQGTQVTVSS
  polyreactivity (PSR sort gate): low polyreactivity

## QVHLVESGGGLVQAGGSLRLSCAASGSIFWWYAMGWYRQAPGKERELVAAIRWSGTTAFYADSVKGRFTISRDYAKNTVYLQMNSLKPEDTAVYYCNAEGGIWGGTTGYDYWGQGTQVTVSS
  polyreactivity (PSR sort gate): low polyreactivity

## QVHLVESGGGLVQAGGSLRLSCAASGSIFYTNAMGWYSQAPGKERELVAAISYSGGRTYYADSVKGRFTISRDNAKNTVYIQMNSLKPEDTAVFYCNTVLRGGSTEAFDYWGQGTKVTVSS
  polyreactivity (PSR sort gate): high polyreactivity
